From patent publication CN117999283A (INST BASIC SCIENCE; KOREA ADVANCED INST SCI & TECH, dated 2024) come the findings set out here.

Sequences and labels used below:
B1: hTAAB (hTie2活化小鼠单克隆抗体, 小鼠IgG1) (antibody, V domains shown)
VH: QVQLQQPGAELVRPGASVKLSCKASGYSFTSYWMNWVKQRPGQGLEWIGMIHPSDSETRLNQKFMDKATLTVDKSSSTAYMQLSSPTSEDSAVYYCARGLYGNSWGQGTLVTVSA
VL: DIQMTQSPSSLSASLGERVSLTCRASQDIGISLNWLQQEPDGTIKRLIYATSSLDSGVPKRFSGSRSGSDYSLTISSLESEDFVDYYCLQYASSPYTFGGGTKLEIK
notes: Mouse IgG1 from a hybridoma; also called 小鼠hTAAB; 亲本hTAAB
B2: 人Tie2 ECD (人Tie2的第23-735位残基) (receptor, human, UniProt Q02763 23-735, looked up)
chain: AMDLILINSLPLVSDAETSLTCIASGWRPHEPITIGRDFEALMNQHQDPLEVTQDVTREWAKKVVWKREKASKINGAYFCEGRVRGEAIRIRTMKMRQQASFLPATLTMTVDKGDNVNISFKKVLIKEEDAVIYKNGSFIHSVPRHEVPDILEVHLPHAQPQDAGVYSARYIGGNLFTSAFTRLIVRRCEAQKWGPECNHLCTACMNNGVCHEDTGECICPPGFMGRTCEKACELHTFGRTCKERCSGQEGCKSYVFCLPDPYGCSCATGWKGLQCNEACHPGFYGPDCKLRCSCNNGEMCDRFQGCLCSPGWQGLQCEREGIQRMTPKIVDLPDHIEVNSGKFNPICKASGWPLPTNEEMTLVKPDGTVLHPKDFNHTDHFSVAIFTIHRILPPDSGVWVCSVNTVAGMVEKPFNISVKVLPKPLNAPNVIDTGHNFAVINISSEPYFGDGPIKSKKLLYKPVNHYEAWQHIQVTNEIVTLNYLEPRTEYELCVQLVRRGEGGEGHPGPVRRFTTASIGLPPPRGLNLLPKSQTTLNLTWQPIFPSSEDDFYVEVERRSVQKSDQQNIKVPGNLTSVLLNNLHPREQYVVRARVNTKAQGEWSEDLTAWTLSDILPPQPENIKISNITHSSAVISWTILDGYSISSITIRYKVQGKNEDQHVDVKIKNATITQYQLKGLEPETAYQVDIFAENNIGSSNPAFSHELVTLPES
notes: range 23-735; The construct is defined on GenBank AAH35514.2; Tags are not described; also called hTie2 ECD

Series [1] concerns the target B2. The series is described as follows: SPR (Biacore T200): hTie2 ECD amine-coupled on CM5, IgG as analyte at 0-64 nM, 1:1 model. Background: Surface plasmon resonance follows binding to a sensor surface in real time, without labels.
Series [2] concerns the molecule itself. The series is described as follows: SEC-MALS; self-association in solution. For orientation: In gel filtration, larger molecules generally elute earlier.

B1: in series [1], the Kd amounted to 4.2 nM, the off-rate (koff) is 0.0006 s⁻¹ and the kon was 140000 M⁻¹ s⁻¹.
B2: the binding result in series [2] is “no binding (tested: 1mg/ml)”.

In general, Kd refers to a measure of binding affinity in units of concentration. One may read the koff as the rate constant with which the complex falls apart. Usually kon stands for the rate constant with which the complex forms. Lower therefore signals slower complex formation.
